Assays:
purified protein [1] = substrate: CC(C)(COP(=O)(O)OP(=O)(O)OC[C@H]1O[C@@H](n2cnc3c(N)ncnc32)[C@H](O)[C@@H]1O)[C@@H](O)C(=O)NCCC(=O)NCCS; test: purified protein; settings: 200 uM ATP, 10 mM MgCl2, pH 7.4, 37 °C
purified protein [2] = substrate: Nc1ncnc2c1ncn2[C@@H]1O[C@H](COP(=O)(O)OP(=O)(O)OP(=O)(O)O)[C@@H](O)[C@H]1O; test: purified protein; settings: 200 uM dCoA, 10 mM MgCl2, pH 7.4, 37 °C, phosphotransferase

B1: DPCK (DPCK-WT), putative dephospho-CoA kinase (Aquifex aeolicus VF5) (protein)
chain: MKRIGLTGNIGCGKSTVAQMFRELGAYVLDADKLIHSFYRKGHPVYEEVVKTFGKGILDEEGNIDRKKLADIVFKDEEKLRKLEEITHRALYKEIEKITKNLSEDTLFILEASLLVEKGTYKNYDKLIVVYAPYEVCKERAIKRGMSEEDFERRWKKQMPIEEKVKYADYVIDNSGSIEETYKQVKKVYEELTRDP
**Q.** With B1 as the protein, how does the Km (purified protein [1]) read?
**A.** 24.3 ± 1.7 µM

**Q.** And the kcat (purified protein [1])?
**A.** 0.817 ± 0.0867 s⁻¹

**Q.** And the Km (purified protein [2])?
**A.** 12.7 ± 0.3 µM

**Q.** What about the kcat (purified protein [2]) of the same protein?
**A.** 0.73 ± 0.025 s⁻¹
